Columns and labels:
COUP-TFII-GST [1] = target: T1, COUP-TFII-GST (mouse, UniProt P43135 1-414); assay: EMSA
T1 sequence: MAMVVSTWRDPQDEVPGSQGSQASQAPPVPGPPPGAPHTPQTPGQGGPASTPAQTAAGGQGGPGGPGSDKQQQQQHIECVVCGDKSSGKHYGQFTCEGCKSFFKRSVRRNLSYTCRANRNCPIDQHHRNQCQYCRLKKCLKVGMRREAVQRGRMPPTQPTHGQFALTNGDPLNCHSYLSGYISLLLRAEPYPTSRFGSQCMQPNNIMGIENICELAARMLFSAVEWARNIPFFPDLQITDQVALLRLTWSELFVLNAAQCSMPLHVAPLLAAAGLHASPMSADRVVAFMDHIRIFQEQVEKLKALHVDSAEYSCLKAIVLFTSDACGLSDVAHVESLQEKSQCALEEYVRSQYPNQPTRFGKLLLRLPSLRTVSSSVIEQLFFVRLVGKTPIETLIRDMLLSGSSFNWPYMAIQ

COUP-TFII;NKX2-1 = target: T2, COUP-TFII;NKX2-1 (mouse;, UniProt P43135;P50220 1-414;1-372, |); assay: EMSA
T2 sequence 1: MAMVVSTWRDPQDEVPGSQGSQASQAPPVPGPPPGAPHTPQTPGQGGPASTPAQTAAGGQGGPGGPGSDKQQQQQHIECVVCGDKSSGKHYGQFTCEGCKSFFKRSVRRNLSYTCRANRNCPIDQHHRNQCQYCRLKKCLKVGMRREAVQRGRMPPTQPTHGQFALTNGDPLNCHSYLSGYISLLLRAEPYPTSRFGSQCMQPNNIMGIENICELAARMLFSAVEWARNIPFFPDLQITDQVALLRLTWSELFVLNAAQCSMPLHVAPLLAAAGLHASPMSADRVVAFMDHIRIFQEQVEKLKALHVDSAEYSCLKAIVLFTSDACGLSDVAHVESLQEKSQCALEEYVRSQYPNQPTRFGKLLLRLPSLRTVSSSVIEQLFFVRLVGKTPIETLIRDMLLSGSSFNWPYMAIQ
T2 sequence 2: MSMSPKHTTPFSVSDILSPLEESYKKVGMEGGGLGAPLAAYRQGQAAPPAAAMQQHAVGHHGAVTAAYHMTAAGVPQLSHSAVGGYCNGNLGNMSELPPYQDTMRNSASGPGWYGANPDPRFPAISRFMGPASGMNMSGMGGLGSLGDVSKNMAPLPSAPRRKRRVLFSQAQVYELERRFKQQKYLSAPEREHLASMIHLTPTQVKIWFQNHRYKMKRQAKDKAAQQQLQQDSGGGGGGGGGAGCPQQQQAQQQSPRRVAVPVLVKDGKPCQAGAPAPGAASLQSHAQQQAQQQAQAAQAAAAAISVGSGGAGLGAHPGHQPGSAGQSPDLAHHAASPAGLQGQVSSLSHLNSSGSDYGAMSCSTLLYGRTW

[2] = target: T3, recombinant COUP-TFII (construct not told for this experiment) (mouse, UniProt P43135 1-414); assay: native gel or EMSA
T3 sequence (looked up): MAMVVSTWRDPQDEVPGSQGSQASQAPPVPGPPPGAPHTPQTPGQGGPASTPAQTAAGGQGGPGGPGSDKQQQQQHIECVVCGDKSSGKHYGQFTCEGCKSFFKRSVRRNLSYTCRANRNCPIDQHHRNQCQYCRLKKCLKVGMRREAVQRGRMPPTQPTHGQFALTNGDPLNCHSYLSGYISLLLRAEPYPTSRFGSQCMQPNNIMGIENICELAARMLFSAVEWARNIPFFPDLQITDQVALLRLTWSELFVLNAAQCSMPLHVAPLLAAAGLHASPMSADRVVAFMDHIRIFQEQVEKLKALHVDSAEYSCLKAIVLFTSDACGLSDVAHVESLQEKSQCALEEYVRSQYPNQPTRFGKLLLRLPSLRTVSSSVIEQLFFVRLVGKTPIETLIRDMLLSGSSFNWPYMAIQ

COUP-TFII-GST [3] = target: T4, COUP-TFII-GST (mouse, UniProt P43135 1-414); assay: native gel or EMSA
T4 sequence (looked up): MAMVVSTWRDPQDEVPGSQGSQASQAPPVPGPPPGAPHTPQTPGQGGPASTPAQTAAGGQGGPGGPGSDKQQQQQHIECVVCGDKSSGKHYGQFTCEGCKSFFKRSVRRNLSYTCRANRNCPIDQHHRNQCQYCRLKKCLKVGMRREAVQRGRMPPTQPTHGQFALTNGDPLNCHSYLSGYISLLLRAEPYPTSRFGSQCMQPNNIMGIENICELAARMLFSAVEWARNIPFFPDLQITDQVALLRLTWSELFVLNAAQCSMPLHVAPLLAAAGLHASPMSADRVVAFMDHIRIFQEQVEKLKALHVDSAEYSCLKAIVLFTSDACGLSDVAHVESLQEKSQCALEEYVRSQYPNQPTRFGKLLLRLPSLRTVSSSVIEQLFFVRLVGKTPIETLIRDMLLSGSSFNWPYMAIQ

B1: CE_ΔC_AB (dsDNA)
DNA 1: CCATGCACTTGAAAAAAAATGGAAAAACACCTCC
DNA 2: GGAGGTGTTTTTCCATTTTTTTTCAAGTGCATGG
COUP-TFII-GST [1]
  binding result: no binding

B2: Nrp2 NCCE (dsDNA)
DNA 1: TTGCCAAATTATGTGACCTTTGGCAGACCAGCTG
DNA 2: CAGCTGGTCTGCCAAAGGTCACATAATTTGGCAA
COUP-TFII;NKX2-1
  binding result: binds

B3: recombinant NKX2-3 (natural protein, mouse, UniProt P97334 1-362, looked up)
chain: MMLPSPVTSTPFSVKDILNLEQQRHFHGAHLQAELEQHFHSAPCMLATAEGTQFSDAGEEDEEEEGEKLSYLNSLAAAEGHGDSGLCPQSYVHTVLRDACSGPKEQEEEVVSERSQKSCQLKKSLEAAGDCKTSEDGERPKPRSRRKPRVLFSQAQVFELERRFKQQRYLSAPEREHLASSLKLTSTQVKIWFQNRRYKCKRQRQDKSLELGTHAPPPPPRRVAVPVLVRDGKPCVTPSAQTYGSPYGVGAGAYSYNSFPAYGYGNSAAAAAAAAAAAAAAAAYSGSYGCAYPTGGGGGGGGTASAATTAMQPACSATGGGSFVNVSNLGGFGSGGGAQPLHQGAAAGSACTQGTLQGIRAW
[2]
  binding result: binds
COUP-TFII-GST [3]
  binding result: binds

Reference: publication doi:10.1101/2022.02.17.480956 (bioRxiv, 2022)
